Results taken from US20220062416A1.

Key:
[1] = molecular target: PCSK9 antigen (SEQ ID NO: 53), human PCSK9 (human) (UniProt Q8NBP7); assay: flow cytometry, PCSK9 left bound to CHO-LDLR cells (anti-His-FITC), control IgG 1000 nM
[2] = molecular target: PCSK9 antigen (SEQ ID NO: 53), human PCSK9 (human) (UniProt Q8NBP7); assay: flow cytometry, PCSK9 left bound to CHO-LDLR cells (anti-His-FITC), control IgG 0.1 nM
[3] = molecular target: PCSK9 antigen (SEQ ID NO: 53), human PCSK9 (human) (UniProt Q8NBP7); assay: flow cytometry, PCSK9 left bound to CHO-LDLR cells (anti-His-FITC), control IgG 1 nM
[4] = molecular target: PCSK9 antigen (SEQ ID NO: 53), human PCSK9 (human) (UniProt Q8NBP7); assay: flow cytometry, PCSK9 left bound to CHO-LDLR cells (anti-His-FITC), control IgG 100 nM
[5] = molecular target: PCSK9 antigen (SEQ ID NO: 53), human PCSK9 (human) (UniProt Q8NBP7); assay: flow cytometry, PCSK9 left bound to CHO-LDLR cells (anti-His-FITC), control IgG 10 nM

IgG (antibody)
Fluorescence signal value [1]: 8920 | Fluorescence signal value [2]: 7000 | Fluorescence signal value [3]: 6730 | Fluorescence signal value [4]: 7520 | Fluorescence signal value [5]: 6960
